Test results: patent publication US20160145323A1 (INTEGRAL MOLECULAR, published 2016)

How the values were obtained:
[1] = target: CHIKV envelope mutant E2-T116A expressed on HEK-293T cells (Chikungunya virus (S27 strain), UniProt P0DOK1 326-748; Q8JUX5 810-1248)
[2] = target: CHIKV envelope mutant E2-F84A expressed on HEK-293T cells (Chikungunya virus (S27 strain), UniProt P0DOK1 326-748; Q8JUX5 810-1248)
[3] = target: CHIKV envelope mutant E2-Y69A expressed on HEK-293T cells (Chikungunya virus (S27 strain), UniProt P0DOK1 326-748; Q8JUX5 810-1248)
[4] = target: CHIKV envelope mutant E2-V113A expressed on HEK-293T cells (Chikungunya virus (S27 strain), UniProt P0DOK1 326-748; Q8JUX5 810-1248)
[5] = target: CHIKV envelope mutant E2-G114A expressed on HEK-293T cells (Chikungunya virus (S27 strain), UniProt P0DOK1 326-748; Q8JUX5 810-1248)
[6] = target: CHIKV envelope mutant E2-D117A expressed on HEK-293T cells (Chikungunya virus (S27 strain), UniProt P0DOK1 326-748; Q8JUX5 810-1248)
[7] = target: CHIKV E2/E1 envelope (S27 strain) displayed on particles (intact CHIKV VLPs, retroviral VLPs, pseudo (Chikungunya virus (S27 strain)) (UniProt P0DOK1)); assay: cell-based or functional assay
[8] = target: CHIKV E2/E1 envelope (S27 strain) displayed on particles (intact CHIKV VLPs, retroviral VLPs, pseudo (Chikungunya virus (S27 strain)) (UniProt P0DOK1))
[9] = target: CHIKV envelope mutant E2-K66A expressed on HEK-293T cells (Chikungunya virus (S27 strain)) (UniProt P0DOK1)
[10] = target: CHIKV envelope mutant E2-W64A expressed on HEK-293T cells (Chikungunya virus (S27 strain)) (UniProt P0DOK1)
[11] = target: CHIKV envelope mutant E2-R80A expressed on HEK-293T cells (Chikungunya virus (S27 strain)) (UniProt P0DOK1)
[12] = target: CHIKV envelope mutant E2-G55A expressed on HEK-293T cells (Chikungunya virus (S27 strain)) (UniProt P0DOK1)
[13] = target: CHIKV envelope mutant E2-I121A expressed on HEK-293T cells (Chikungunya virus (S27 strain)) (UniProt P0DOK1)
[14] = target: CHIKV envelope mutant E2-E24A expressed on HEK-293T cells (Chikungunya virus (S27 strain)) (UniProt P0DOK1)
[15] = target: CHIKV envelope mutant E2-A162S (Chikungunya virus (S27 strain)) (UniProt P0DOK1)
[16] = target: CHIKV envelope mutant E2-W64A expressed on HEK-293T cells (Chikungunya virus (S27 strain)) (UniProt P0DOK1); remark: listed apart in the source
[17] = target: CHIKV envelope mutant E2-R80A expressed on HEK-293T cells (Chikungunya virus (S27 strain)) (UniProt P0DOK1); remark: listed apart in the source
[18] = target: CHIKV envelope mutant E2-G55A expressed on HEK-293T cells (Chikungunya virus (S27 strain)) (UniProt P0DOK1); remark: listed apart in the source
[19] = target: CHIKV envelope mutant E2-I121A expressed on HEK-293T cells (Chikungunya virus (S27 strain)) (UniProt P0DOK1); remark: listed apart in the source
[20] = target: CHIKV envelope mutant E2-E24A expressed on HEK-293T cells (Chikungunya virus (S27 strain)) (UniProt P0DOK1); remark: listed apart in the source
[21] = target: T1, CHIKV E2/E1 envelope (S27 strain) displayed on particles (intact CHIKV VLPs, retroviral VLPs, pseudo (Chikungunya virus (S27 strain), UniProt P0DOK1 326-748; Q8JUX5 810-1248); assay: cell-based or functional assay
[22] = target: T1, CHIKV E2/E1 envelope (S27 strain) …

B1: CAP101A-E8 (IM-CKV056), converted to full length human IgG (antibody, V domains shown)
VH: QVQLVQSGGGVVQPGRSLRLSCAASGFTLSTYGLHWVRQAPGKGLEWVAVISYDGTNKYYADSVKGRFTVSWDNSKNTLYLQMNSLRAEDTAVYYCAKDLASSSWSDYYHYGMDVWGQGTMVTVSS
VL: DIQLTQSPSTLSASVGDRITITCRATQSIGSWLAWYQQKPGKAPKLLIYKASSLESGVPSRFSGSGSATEFTLTISGLQPEDFATYYCQQLKSFPLTFGPGTKVDIQ
reactivity relative to WT CHIKV env [1]: < 20 % of WT
reactivity relative to WT CHIKV env [2]: < 20 % of WT
reactivity relative to WT CHIKV env [3]: < 20 % of WT
reactivity relative to WT CHIKV env [4]: < 20 % of WT
reactivity relative to WT CHIKV env [5]: < 20 % of WT
reactivity relative to WT CHIKV env [6]: < 20 % of WT

B2: MAb CAP4A-E7 (IM-CKV063), human IgG1 (antibody, V domains shown)
VH: QVQLVQSGAEVKKPGSAVKVSCKASGGTLRKYAISWLRQAPGQGLEWMGGIIPIFGTANYAQKFQGRVTITADESTTTPYTTTPYTSTAYIELTSLRSEDTAVYYCARDLGPLTGYSYSYFDYWGQGTLVTVSS
VL: EIVMTQSPATLSLSPGERATLSCRASQSVSSYLAWYQQKPGQAPRLLIYDASNRATGIPDRFSGSGSGTDFTLTISRLEPEDFAVYYCQQYANSRRTFGQGTKVEIT
IC50, neutralization of reporter viruses pseudotyped with CHIKV S27 E2/E1 [7]: 0.0074 µg/mL
PRNT50, live CHIKV S27 on Vero cells [7]: 11 ng/mL
Kd [8]: 0.32 nM
koff [8]: 9.4e-05 s⁻¹
kon [8]: 290000 M⁻¹ s⁻¹

B3: purified Fab CAP4A-E7 (Fab, V domains shown)
VH: B2 VH
VL: B2 VL
binding relative to wild-type E2/E1 (% of wild-type) [9]: < 20
binding relative to wild-type E2/E1 (% of wild-type) [10]: < 20
binding relative to wild-type E2/E1 (% of wild-type) [11]: < 20
binding relative to wild-type E2/E1 (% of wild-type) [12]: < 20
binding relative to wild-type E2/E1 (% of wild-type) [13]: < 20
binding relative to wild-type E2/E1 (% of wild-type) [14]: < 20
percent wild-type reactivity (percent wild-type) [15]: 37
percent wild-type reactivity (percent wild-type) [16]: 1
percent wild-type reactivity (percent wild-type) [17]: 3
percent wild-type reactivity (percent wild-type) [18]: 12
percent wild-type reactivity (percent wild-type) [19]: 2
percent wild-type reactivity (percent wild-type) [20]: 15

B4: MAb CAP5A-F6 (IM-CKV065), human IgG1 (antibody, V domains shown)
VH: EVQLVQSGPEVKKPGASVKVSCKASGYTFSNYGVSWVRQAPGQGLEWLGWISAYNGNTKYAQKFEGRVTLTTDSLSDTAYMELRSLRSDDTAVYYCVRDDRSGYYYLPFDFWGQGTLVTVSS
VL: DIQLTQSPSFLSASVGDRVTITCRASQGISSYLAWYQQKPGKAPKLLIFAASTLQSGVPSRFSGSGSGTDYTLTISSLQPEDFATYYCQQSYSNPTFGQGTRLEIK
IC50, neutralization of reporter viruses pseudotyped with CHIKV S27 E2/E1 [21]: 0.17 µg/mL
Kd [22]: 9.3 nM
koff [22]: 0.0015 s⁻¹
kon [22]: 160000 M⁻¹ s⁻¹
